What was measured:
[1] = test system: 4T1 cells; test: Orthotopic 4T1 mammary carcinoma model, primary tumor and metastasis; assay type: in vivo, mice
Experimental: FIG. 8. […] Mice were inoculated with 4T1 cells (0.25 millions) in the mammary gland. […] A. The tumor area was measured 8 days after tumor injection and then every 2 days. B. Tumor lung metastasis was measured by Bioluminescence imaging (BLI) in animals treated with isotype control and anti-CMKLR1 antibody (n=4).
Mice were anesthetized with 3% of isoflurane. Mice were shaved on the abdomen and 4T1 cells (0.25 millions) were injected in the mammary gland with an insulinic syringe (30 Gauges) in 50 μL of PBS. […] In a second study to measure the lung metastasis following mammary carcinoma development, animals were treated with anti-CMKLR1 antibody at 0.8 mg/kg or control antibody (100 μg/injection) three times a week for three weeks.

[2] = test system: C57BI/6 male mice, colitis induced by DSS; test: Acute inflammatory colitis model induced by DSS; assay type: in vivo
Experimental: FIG. 2. […] Mice were injected after 6 days of DSS induction with isotype control hIgG1 (10 μg per mouse) (x), RvE1 (1 μg per mouse) daily (•), or 2G1 antibody (10 μg per mouse) three times ( ) for 5 days. Wild type mice, not treated, are represented by an ▾. A. Animal weight loss. B. Animal stool score C. Colon length. D. Resolution index.
Colitis was induced in 8-10 weeks-old-C57BI/6 male mice by adding 2% (wt/vol) of DSS to the sterile drinking ad libitum water for 6 days. Treatments were injected intra-peritoneally: Isotype control hIgG1 (10 μg per mouse), RvE1 (1 μg per mouse) daily, or 2G1 antibody (10 μg per mouse) three times for 5 days. Colitis follow-up consisting of body weight and stool score (0: normal stool; 4: blood in stool) parameters were performed daily. When mice were euthanized, colon length representing the pathology severity was measured. Resolution index was determined in the different conditions as described in Bannenberg et al., 2005.

[3] = test system: IL-10KO mice, spontaneous colitis; test: IL10-KO spontaneous chronic colitis model; assay type: in vivo; details: 25 μg/injection i.p., 3 times a week, vs isotype control
Experimental: FIG. 4. […] Mice KO for IL10 develop a spontaneous inflammatory colitis. They were treated with an Anti-CMKLR1 antibody (2G1) ( ) or isotype control (hIgG1) (x) intra-peritoneally (25 μg/injection, 3 times a week). A. Animal weight loss during and after treatment. B. Animal score stool.
IL-10KO mice develop a spontaneous colitis from 20 weeks of age mostly due to the absence of regulatory T cells function through IL-10 secretion in the intestine. IL-10KO mice were followed-up three times a week from 18-week old for their weight loss and stool consistency which are clinical hallmarks of this pathology.

[4] = test system: CT26 cells; test: CT26 colon carcinoma model; assay type: in vivo, mice; details: FIG. 9A-C, 20 μg/injection i.p. for 3 weeks
Experimental: FIG. 9. […] Two mice models were studied, and animals received isotype control antibody (3G8) (x) or anti-CMKLR1 (2G1) ( ) at 20 μg/injection intraperitoneally for 3 weeks. A-C. Results in the CT26 colon carcinoma model comparing single treatment with p84 (A) and 2G1 (B) with combined therapy with both antibodies (C). D: Results in the MC38 colon carcinoma model.
8-week old C57bl/6J male mice were anesthetized with 3% of isoflurane. Mice were shaved on the flank and MC38 cells (0.5·10^6 cells/mouse) cell lines were injected subcutaneously with an insulinic syringe (30 Gauges) in 50 μL of PBS. Another model was used, in which 8-week old Balb/c male mice were anesthetized with 3% of isoflurane. Mice were shaved on the flank and CT26 cells (1·10^6 cells/mouse) were injected subcutaneously with an insulinic syringe (30 Gauges) in 50 μL of PBS.
The agonistic anti-CMKLR1 antibody (2G1) or an anti-SIRPa antibody (p84-anti-mouse SIRPa from Merck Millipore) (SIRPa is a new checkpoint inhibitor) were injected once a week (20 μg/injection) intraperitoneally for 3 weeks starting at d4 after tumor inoculation alone or combined.

[5] = test system: Akt and Erk proteins (CMKLR1 pathway); test: Western blot of Akt and Erk phosphorylation in mice M1 macrophages; assay type: cell-based; details: FIG. 18; mice M1, 2 μg/mL, after 10 to 30 minutes of incubation
Experimental: FIG. 18. Study of the CMKLR1 pathway activation: Akt and Erk phosphorylation. Western blot analysis of the ERK and AKT activation pathway after 5, 10 and 30 minutes of mice M1 cell incubation with 2G1 or RvE1. The Phosphorylated protein Akt or Erk were assessed using P-Akt antibody or P-Erk antibody (p44/42). A. Erk and Akt activation with RvE1. B. Erk and Akt activation with 2G1.
Mice pro-inflammatory macrophages (M1) were generated from bone marrow with M-CSF and polarized with IFN-gamma (IFNg) and LPS. Briefly, bone marrow cells were collected by flushing the femoral bone and cultured with 100 ng/mL of mM-CSF for 5 days and then polarized with 20 ng/ml of IFNg and 100 ng/mL of LPS for 24 h. Then, they were deprived of FBS for 24 hours with RPMI FBS 2% medium. Finally, mice M1 were treated with 2 μg/mL of 2G1 antibody at different times: 5, 10 and 30 minutes. Cells were collected in a RIPA buffer. The protein concentration was measured by a BCA protein kit assay. Proteins were denatured by heating at 95° C. for 5 minutes and diluted in DTT and Laemmli solution. After migration and transfer, the nitrocellulose membrane was blocked with 5% BSA in TBS-T for 2 hours. […] Western blot Images were quantified by Multi Gauge software

B1: 2G1: chimeric anti-CMKLR1 antibody, murine variable regions (SEQ ID No: 10 and 17), human IgG1 constant regions; VH-CDR3 variant LI (antibody, V domains shown)
VH: METDTLLLWVLLLWVPGSTGDEVQLVASGGGLVQPGGSLKLSCAASGFTFSSYGMSWVRQTPDRRLELVATINRYGGSTYYPDSVKGRFTISRDNAKNTLYLQMSSLKSEDTAMYYCPRLIYYGNEGDSWGQGTTLTVSS
VL: METDTLLLWVLLLWVPGSTGDQIVLTQSPAIMSASPGEKVTMTCSASSSVSFMHWYQQKSGTSPKRWIYDTTKLTSGVPARFSGSGSGTFYSLTISSMEAEDAATYYCQQWNSKPPLTFGPGTKLELKR
modifications: human IgG1 constant regions
notes: VH-CDR3 variant LI
In the case of B1, the “tumor growth (tumor area)” value ([1]; 4T1 mammary carcinoma, FIG. 8A, 10 μg/injection at day 4 and day 7, vs isotype control) is reported as “did not show any improvement in the tumor growth”, the “lung metastasis by bioluminescence imaging” value ([1]; 4T1 model, FIG. 8B, 0.8 mg/kg three times a week for three weeks, vs control antibody) is reported as “reduces the lung metastasis” and the lymph node metastasis ([1]; 4T1 model, data not shown, two animals in the control have metastasis) is reported as “no animals treated with the anti-CMKLR1 compound has metastasis”. For the same molecule, the “overall state of the animals” value ([2]; 10 μg per mouse i.p. three times, vs control antibody or RvE1) was “better overall state”, the weight loss ([2]; FIG. 2A, 10 μg per mouse i.p.) was “lost significantly less weight” and the score stool ([2]; FIG. 2B, 10 μg per mouse i.p.) was “significantly better”. The “percentage of weight loss” value ([3]; FIG. 4A) was “lost less weight”, the score stool ([3]; FIG. 4B) was “better score stool” and the “tumor development / tumor growth” value [4] was “did not demonstrate a clinical effect on the tumor development”. For the same molecule, the “activation (phosphorylation) of Akt protein” value [5] was “able to induce the activation” and the “activation (phosphorylation) of Erk protein” value [5] was “able to induce the activation”.

From US20240400698A1, “ANTI-CHEMOKIN LIKE RECEPTOR 1 ANTIBODIES AND THEIR THERAPEUTIC APPLICATIONS” (OSE IMMUNOTHERAPEUTICS, priority 2018, published 2024)
